Ends that are not written are not given here.

The assay addresses T1, Biotinylated junctional peptide Pep21 (PfCSP peptide 21) (Plasmodium falciparum 3D7, UniProt Q7K740, also: biotinylated, position not given here).
T1 construct: Plasmodium falciparum circumsporozoite protein (PfCSP), junctional region, residues 101-115; source: synthetic peptide, bought: Genscript
T1 chain: NPDPNANPNVDPNAN
In words: BLI; Octet Red384, biotinylated Pep21 on streptavidin biosensors, Fab serially diluted from 1000 to 62.5 nM, 30°C, PBS + 1% BSA, association 60 s, dissociation 180 s, global fit 1:1 Langmuir. The following applies: both partners purified. (BLI is a label-free optical method that tracks binding on a fibre tip over time.)

B1: P3-43 Fab (m43.151 P100K_H) (Fab, V domains shown)
VH: QVHLVQSGAEVKKPGASVKVSCKASGYTFTSYAIHWVRQAPGQRLEWMGWIKGGNGNTRYSQKFQDRVTITRDTSASTAYMELSSLRSEDTAVYYCALLTVITKDDAFDIWGQGTMVTVSS
VL: not shown
notes: as the heavy chain of m5 (PDB 7LKG) with the stated change; own structure deposited here; as the light chain of m5; source: Fab produced from the antibody
For orientation: Kd means the free concentration of one partner at which half of the binding sites on the other are occupied at equilibrium, for simple one-to-one binding. As for B1, the Kd was 8.9 nM.

The values above are taken from PMC12269619, “In silico improvement of affinity for highly protective anti-malarial antibodies” (iScience, 2025).
